{
  "source": "paper PMC5206904",
  "about": "(DNA repair, 2015)",
  "binders": {"B1": {"name": "recombinant PCNA mutant VDK188 (natural protein, UniProt P12004 1-261, looked up)", "chain": "MFEARLVQGSILKKVLEALKDLINEACWDISSSGVNLQSMDSSHVSLVQLTLRSEGFDTYRCDRNLAMGVNLTSMSKILKCAGNEDIITLRAEDNADTLALVFEAPNQEKVSDYEMKLMDLDVEQLGIPEQEYSCVVKMPSGEFARICRDLSHIGDAVVISCAKDGVKFSASGELGNGNIKLSQTSNAAAEEEAVTIEMNEPVQLTFALRYLNFFTKATPLSSTVTLSMSADVPLVVEYKIADMGHLKYYLAPKIEDEEGS"}},
  "biological_target": "T1, recombinant ALKBH2 with a streptavidin binding peptide tag (human, UniProt Q6NS38 1-261)",
  "T1 sequence (looked up)": "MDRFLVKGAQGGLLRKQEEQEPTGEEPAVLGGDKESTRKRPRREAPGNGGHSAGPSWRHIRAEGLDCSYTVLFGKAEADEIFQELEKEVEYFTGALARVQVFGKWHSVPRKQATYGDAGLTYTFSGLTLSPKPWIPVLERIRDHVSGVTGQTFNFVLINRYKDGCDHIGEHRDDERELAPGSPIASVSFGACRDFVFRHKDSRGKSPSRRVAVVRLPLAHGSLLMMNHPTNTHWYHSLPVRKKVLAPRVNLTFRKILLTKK",
  "assay": "pull-down",
  "data": [
    {"binder": "B1", "values": [
      {"measurement": "binding result", "result": "binds"}
    ]}
  ]
}
